Key:
DYT-TOR1A MEF EVs = experiment: Quantitative LC-MS/MS proteomics of EVs from drug-treated DYT-TOR1A MEF cultures (ritonavir, salubrinal); assay type: cell-based, mouse; set-up: key to RTV Corrective Direction / RTV Corrective Direction, Grwd1 / RTV Corrective Direction, Srrm2 / RTV Corrective Direction, Rbm17 / RTV Corrective Direction, Dcaf8 / RTV Corrective Direction, Edil3 / RTV Corrective Direction, Timp3 / RTV Corrective Direction, Heatr3 / RTV Corrective Direction, Brd4 / RTV Corrective Direction, P3h4 / RTV Corrective Direction, Pacsin3 / RTV Corrective Direction, Naa50 / RTV Corrective Direction, Lpar6 / RTV Corrective Direction, Ndrg1 / RTV Corrective Direction, Kntc1 / RTV Corrective Direction, Cdk11b / RTV Corrective Direction, Sumo1 / RTV Corrective Direction, Lsm4 / RTV Corrective Direction, Hmga2 / RTV Corrective Direction, Cstf1 / RTV Corrective Direction, Tes / RTV Corrective Direction, Sbno1 / RTV Corrective Direction, Unc119b / RTV Corrective Direction, Cfdp1 / RTV Corrective Direction, Sec61b: YES = protein abundance effect opposite to DYT/WT; details: EV protein abundance; for RTV Corrective Direction: DYT + RTV (ritonavir) vs DYT, direction compared with DYT/WT; for DYT + RTV/DYT Cohen's d: ritonavir (RTV)-treated DYT vs DYT
WT MEF EVs = experiment: Quantitative LC-MS/MS proteomics of EVs from ISRIB-treated WT MEF cultures; assay type: cell-based, mouse; set-up: key to ISRIB and DYT Parallel Direction / ISRIB and DYT Parallel Direction, Ctdsp1 / ISRIB and DYT Parallel Direction, Pcdh19 / ISRIB and DYT Parallel Direction, Tspan7 / ISRIB and DYT Parallel Direction, Myo1e / ISRIB and DYT Parallel Direction, Plpp3 / ISRIB and DYT Parallel Direction, Sh3bp4 / ISRIB and DYT Parallel Direction, Dnajc7 / ISRIB and DYT Parallel Direction, Drg1 / ISRIB and DYT Parallel Direction, Maea: YES = protein abundance effect similar to DYT/WT; details: EV protein abundance; for WT + ISRIB/WT Cohen's d: ISRIB-treated WT vs WT; for ISRIB and DYT Parallel Direction: WT + ISRIB vs WT, direction compared with DYT/WT

Molecule	RTV Corrective Direction (DYT-TOR1A MEF EVs)	DYT + RTV/DYT Cohen's d (DYT-TOR1A MEF EVs)	WT + ISRIB/WT Cohen's d (WT MEF EVs)	ISRIB and DYT Parallel Direction (WT MEF EVs)
Ap1b1 (protein, UniProt O35643 1-943, looked up) AP-1 complex subunit beta-1: MTDSKYFTTTKKGEIFELKAELNSDKKEKKKEAVKKVIASMTVGKDVSALFPDVVNCMQTDNLELKKLVYLYLMNYAKSQPDMAIMAVNTFVKDCEDPNPLIRALAVRTMGCIRVDKITEYLCEPLRKCLKDEDPYVRKTAAVCVAKLHDINAQLVEDQGFLDTLKDLISDSNPMVVANAVAALSEIAESHPSSNLLDLNPQSINKLLTALNECTEWGQIFILDCLANYMPKDDREAQSICERVTPRLSHANSAVVLSAVKVLMKFMEMLSKDLDYYATLLKKLAPPLVTLLSAEPELQYVALRNINLIVQKRPEILKHEMKVFFVKYNDPIYVKLEKLDIMIRLASQANIAQVLAELKEYATEVDVDFVRKAVRAIGRCAIKVEQSAERCVSTLLDLIQTKVNYVVQEAIVVIKDIFRKYPNKYESVIATLCENLDSLDEPEARAAMIWIVGEYAERIDNADELLESFLEGFHDESTQVQLQLLTAIVKLFLKKPTETQELVQQVLSLATQDSDNPDLRDRGYIYWRLLSTDPVAAKEVVLAEKPLISEETDLIEPTLLDELICYIGTLASVYHKPPNAFVEGGRGVVHKSLPPRTASSESTESPETAPAGAPAGDQPDVIPAQGDLLGDLLNLDLGPPVSGPPLAASSVQMGAVDLLGGGLDSLIGDSNFGAPSASVAAAPAPARLGAPISSGLSDLFDLTSGVGTLSGSYVAPKAVWLPAMKAKGLEISGTFTRQAGSISMDLQLTNKALQVMTDFAIQFNRNSFGLAPAAPLQVHVPLSPNQTVEISLPLNTVGSVLKMEPLNNLQVAVKNNIDVFYFSTLYPLHVLFVEDGKMDRQMFLATWKDIANENEAQFQIRDCPLNTEAASNKLQSSNIFTVAKRNVEGQDMLYQSLKLTNGIWVLAELRIQPGNPSFTLSLKCRAPEVSQHVYQAYETILKN	YES	4.53	−1.08	YES
Spr (protein, UniProt P35270 1-261, looked up) Sepiapterin reductase: MEGGLGRAVCLLTGASRGFGRTLAPLLASLLSPGSVLVLSARNDEALRQLEAELGAERSGLRVVRVPADLGAEAGLQQLLGALRELPRPKGLQRLLLINNAGSLGDVSKGFVDLSDSTQVNNYWALNLTSMLCLTSSVLKAFPDSPGLNRTVVNISSLCALQPFKGWALYCAGKAARDMLFQVLALEEPNVRVLNYAPGPLDTDMQQLARETSVDPDMRKGLQELKAKGKLVDCKVSAQKLLSLLEKDEFKSGAHVDFYDK	YES	3.69	−3.64	YES
Copb2 (protein, UniProt O55029 1-905, looked up) Coatomer subunit beta': MPLRLDIKRKLTARSDRVKSVDLHPTEPWMLASLYNGSVCVWNHETQTLVKTFEVCDLPVRAAKFVARKNWVVTGADDMQIRVFNYNTLERVHMFEAHSDYIRCIAVHPTQPFILTSSDDMLIKLWDWDKKWSCSQVFEGHTHYVMQIVINPKDNNQFASASLDRTIKVWQLGSSSPNFTLEGHEKGVNCIDYYSGGDKPYLISGADDRLVKIWDYQNKTCVQTLEGHAQNVSCASFHPELPIIITGSEDGTVRIWHSSTYRLESTLNYGMERVWCVASLRGSNNVALGYDEGSIIVKLGREEPAMSMDANGKIIWAKHSEVQQANLKAMGDTEIKDGERLPLAVKDMGSCEIYPQTIQHNPNGRFVVVCGDGEYIIYTAMALRNKSFGSAQEFAWAHDSSEYAIRESNSIVKIFKNFKEKKSFKPDFGAESIYGGFLLGVRSVNGLAFYDWENTELIRRIEIQPKHIFWSDSGELVCIATEESFFILKYLSEKVLAAQETHEGVTEDGIEDAFEVLGEIQEIVKTGLWVGDCFIYTSSVNRLNYYVGGEIVTIAHLDRTMYLLGYIPKDNRLYLGDKELNIVSYSLLVSVLEYQTAVMRRDFSMADKVLPTIPKEQRTRVAHFLEKQGFKQQALTVSTDPEHRFELALQLGELKIAYQLAVEAESEQKWKQLAELAISKCQFSLAQECLHHAQDYGGLLLLATASGNASMVNKLAEGAERDGKNNVAFMSYFLQGKLDACLELLIRTGRLPEAAFLARTYLPSQVSRVVKLWRENLSKVNQKAAESLADPTEYENLFPGLKEAFVVEEWVKETHADLWPAKQYPLVTPNEERNVMEEAKGFQPSRPTAQQEPDGKPASSPVIMASQTTHKEEKSLLELEVDLDNLELEDIDTTDINLDEDILDD	YES	6.13	−1.11	YES
Tars (protein, UniProt Q9D0R2 1-722, looked up) Threonine--tRNA ligase 1, …: MSQEKASSPSGKMDGEKPVDASEEKRKEGGKKKSKDGGGDGGRAELNPWPEYINTRLDMYNKLKAEHDSILAEKAAKDSKPIKVTLPDGKQVDAESWKTTPYQIACGISQGLADNTVVAKVNKVVWDLDRPLETDCTLELLKFEDEEAQAVYWHSSAHIMGEAMERVYGGCLCYGPPIENGFYYDMYLEEGGVSSNDFSSLETLCKKIIKEKQTFERLEVKKETLLEMFKYNKFKCRILNEKVNTPTTTVYRCGPLIDLCRGPHVRHTGKIKTLKIHKNSSTYWEGKADMETLQRIYGISFPDPKLLKEWEKFQEEAKNRDHRKIGRDQELYFFHELSPGSCFFLPKGAYIYNTLMEFIRSEYRKRGFQEVVTPNIFNSRLWMTSGHWQHYSENMFSFEVEKEQFALKPMNCPGHCLMFDHRPRSWRELPLRLADFGVLHRNELSGALTGLTRVRRFQQDDAHIFCAMEQIEDEIKGCLDFLRTVYSVFGFSFKLNLSTRPEKFLGDIEIWNQAEKQLENSLNEFGEKWELNPGDGAFYGPKIDIQIKDAIGRYHQCATIQLDFQLPIRFNLTYVSHDGDDKKRPVIVHRAILGSVERMIAILTENYGGKWPFWLSPRQVMVVPVGPTCDEYAQKVRQQFHDAKFMADTDLDPGCTLNKKIRNAQLAQYNFILVVGEKEKASGTVNIRTRDNKVHGERTVEETVRRLQQLKQTRSKQAEEEF	YES	6.28	−1.16	YES
Rab3gap2 (protein, UniProt Q8BMG7 1-1366, looked up) Rab3 GTPase-activating …: MACSIVQFCSFQDLQSARDFLFPHLREETPGALKRDPSKTSSWEDDSWGAWEETEPREPEEEGNTSKTQKNSWLQECVLSLSPTSDLMVIAREQKAAFLVRKWKHGDKGKEEMQFAVGWSGSVSAEEGEYVTSALCIPLASQKRSSTGRPDWTCIVVGFTSGYVRFYTEGVLLLAQLLNEDKVLQLKCRTYEIPRHPGVTEQNEELSILYPAAIVTIDGFSLFQSLRACRNQVAKAAASGNENIQPPPLAYKKWGLQDIDTIIDHASVGIMTLSPFDQMKTASNIGGFNAAIKNSPPAMSQYITVGSSPFTGFFYALEGSTQPLLSHVALAVASKLTSALFSAASGWLGWKSKHEEDTVQKQKPKMEPATPLAVRFGLPDSRRHGESICLSPCNTLAAVTDDFGRVILLDVARGIAIRMWKGYRDAQVGWIQIVEDLHERVPEKGGFSPFGNTQGPSRVAQFLVIYAPRRGILEVWNTQQGPRVGAFNVGKHCRLLYPGYKIMGLNNVTSQSWQPQTYQICLVDPVSASVKAVNVPFHLALSDKKSERAKDLHLVKKLSALLRAKSPRPDSFETEIKELILDIKYPATKKQALESILASDRLSFSCLRNVTQTLMDTLKNQELESVDEGLLQFCASKLKLLHLYESVSQLNTLDFHSDTPFSDNDLAVLLRLDDKELLKLRALLEKYKQENTKATVRFSEDADRVLPVKTFLEYLEYEKDALSIRKIGEEECVALGSFFFWKCLHGKSSTEEMCHSLESAGLSPQQLLSLLLSVWLSKEKDILDKPQSVCCLHTMLSLLSKMKVAIDETWDSQSVSPWWQQMRMACIQSENSGAALLSAHVGHSVAAQMSSGATDKKFSQMELDADAEALTDSWEALSLDTEYWKLLLRQLEDCLILQTLLHSKLSPPAAKAPSLQSEPLPRLSVKKLLEGGKGGIADSVAKWIFKQDLSPELLKCANKERDVENPDEPREDLLHLAYEQFPCSLELDVLHAHCCWEYVVQWNKDPEEARFLVRSIEHLKQILNPHVQNGIALMMWNTFLVKRFSAATYLMDKVGKSPKDRLCRRDVGMSDTALTSFLGSCLELLQTSLEADISRDEVQVPVLDTEDAWLSVEGPISIVELALEQKPIHYPLVEHHSVLCSILYASMRFSLKSVKPLALFDSKGKNAFFKDLTSIQLLPSGEMDPNFISVRQQFLLKVVSAAVQAQHSKDKDPSAEAANTHWKDLNWPGLAVDLAHHLQVSDDVIRRHYVGELYSHGADLLGEEAIFQVQDKEVLASQLLVLTGQRLAHALFHTQTKEGMELLARLPPTLCTWLKAMNPQDLQNTGVPIAATAKLVHKVMELLPEKHGQYSLALHLIDAVEAMATL	YES	4.70	−0.43	YES

From patent publication US20260266848A1, “COMPOSITIONS AND METHODS FOR DIAGNOSING AND TREATING DYSTONIA” (Duke University, priority 2023, published 2026)
